Laboratory results published in patent publication US20230203156A1, “ANTI-MDR1 ANTIBODIES AND USES THEREOF” (KENJOCKETY BIOTECHNOLOGY, INC., priority 2020, published 2023).
Changes are numbered by the printed parent chain.

B1: B1.226: anti-MDR1 antibody, Mouse; VH SEQ ID NO:112, VL SEQ ID NO:113 (antibody, listed as Mus musculus, V domains shown)
VH: EVQLVESGGALVKPGGSLKLSCAASGFTFSNYAMSWVRQTPETRLEWVATISSGGSYTYYPDSVKGRFTISRDNAKNTLYLQMSSLRSEDTALYYCARYSNLAWFAYWGQGTLVTVSA
VL: DVVMTQTPLSLPVSLGDQASISCRSSQSIVHSNGNTYLDWYLQKPGQSPKFMIYKVSNRFSGVPDRFSGSGSGTDFTLKISRVEAEDLGVYYCFQGSHVPYTFGGGTKLEIK
B2: B1.188: anti-MDR1 antibody, Mouse; VH SEQ ID NO:66, VL SEQ ID NO:79 (antibody, listed as Mus musculus, V domains shown)
VH: EVMLVESGGALVKPGGSLKLSCAASGFTFSNYAMSWVRQTPEKRLEWVATISSGGSYTYYPDSVKGRFTISRDNARNTLYLQMSSLRSEDTAMYYCARGYGNFAWFAYWGQGTLVTVSA
VL: B1 VL with V2I, V3Q, T7S, N33T, D39E, F51L, M52L, Y101F, G105S
B3: B1.225: anti-MDR1 antibody, Mouse; VH SEQ ID NO:105, VL SEQ ID NO:109 (antibody, listed as Mus musculus, V domains shown)
VH: EVQLVESGGALVKPGGSLKLSCAASGFTFSNYGMSWVRQTPEKRLEWVATISSGGSYTYYPDTVKGRFTISRDNAKNTLHLQMSSLRSEDTALYYCARRGTNDAWFGYWGQGTLVTVSA
VL: DVVMTQTPLSLPVSLGDQASISCRFSQSIVHSNGNTYLEWYLQKPGQSPKLLIYKVSNRFFGVPDRFSGSGSGTDFTLKISRVEAEDLGVYFCFQGSHVPQYTFGGGTKLEIK
B4: B1.198: anti-MDR1 antibody, Mouse; VH SEQ ID NO:88, VL SEQ ID NO:90 (antibody, listed as Mus musculus, V domains shown)
VH: B1 VH with T43K, R98K, L102Y, A103G, W104R
VL: B1 VL with H31D, D39E, F51L, M52L, S61F
B5: B1.207: anti-MDR1 antibody, Mouse; VH SEQ ID NO:74, VL SEQ ID NO:76 (antibody, listed as Mus musculus, V domains shown)
VH: B1 VH with E1G, T43K, N77T, S85G, R98K, L102Y, A103G, W104R, Y107S, A118T
VL: B1 VL with V3L, N33S, D39E, K50R, F51L, M52L, S61F, F67I, K79R
B6: B1.219: anti-MDR1 antibody, Mouse; VH SEQ ID NO:99, VL SEQ ID NO:101 (antibody, listed as Mus musculus, V domains shown)
VH: B1 VH with T43K, G54V, N77T, S85G, R98K, L102Y, A103G, W104R, Y107S, A118T
VL: DVLMTQTPLSLPASLGDQASISCRSSQSIVHSSGNTYLEWYLQKPGQSPRLLIYKVSNRFFGVPDRISGSGSGTDFTLRISRVEAEDLGVYYCFQGSHVPYTFGGGTKLEIE
B7: B1.201: anti-MDR1 antibody, Mouse; VH SEQ ID NO:92, VL SEQ ID NO:95 (antibody, listed as Mus musculus, V domains shown)
VH: EVQLVESGGALMKPGGSLKFSCAASGFTFTNYAMSWVRQTPEKRLEWVATISSGGSNTYYSDSVKGRFTISRDNAKTTLYLQMSGLRSEDTALYYCAKFSNFGRFASWGQGTLVTVSA
VL: B6 VL with A13V, S25F, E112K
B8: B1.184: anti-MDR1 antibody, Mouse; VH SEQ ID NO:74, VL SEQ ID NO:76 (antibody, listed as Mus musculus, V domains shown)
VH: B7 VH with E1G, M12V, F20L, T30S, N57Y, S61P, F99Y, F102Y, A118T
VL: B6 VL with A13V, E112K
B9: B1-open.273(A): anti-MDR1 antibody, Mouse; VH SEQ ID NO:155, VL SEQ ID NO:159 (antibody, listed as Mus musculus, V domains shown)
VH: QVQLQQSGPELVKTGASVKISCKASGYSFSNYYIHWVKQSHGKSLEWIGFISCYNGATFYNQKFKGKATFTVDTSSSTAYMKFNSLTFEDSAVYYCARLPIQFGNFYPMDYWGQGTSVTVSS
VL: QIVLTQSPAIMSASLGERVTMTCTASSSVSSSYLHWYQQKPGSSPKLWIYSTSNLASGVPARFSGSGSGTSYSLTISSMEAEDAATYYCHQYHRSPPTFGAGTKLELK
B10: B1.236: anti-MDR1 antibody, Mouse; VH SEQ ID NO:115, VL SEQ ID NO:116 (antibody, listed as Mus musculus, V domains shown)
VH: EAQLVESGGALVKPGGSLKLSCSASGFTFSNYAMSWVRQTPEKRLEWVATISSGGTNTYYPGSVKGRFTIARDNAKNTLYLLMSSLRSEDTALYFCAKYSNLAWFASWGQGTLVTVSA
VL: B1 VL with D1Q, V2I, M4L, T7S, I29L, N33I, D39E, M52L, Y54S, V90I

Test system: A2780 ADR ovarian carcinoma
Assay: A2780 ADR drug-resistant ovarian carcinoma model in nude mice
Type: in vivo
Conditions: antibody as a single agent
Procedure: Anti-ABCB1 antibodies B1.129, B1.261, B1.223, B1.225, B1.188, B1.28, and B1.226 were tested for effect on growth of tumors in immunodeficient mice. The following cancer cell lines were used for generating tumor models.
A2780 ADR: The adriamycin-resistant cell line A2780ADR has been developed by exposure of the parent A2780 cell line (Sigma catalogue no. 93112519) to adriamycin. A2780ADR is cross-resistant to melphalan and vinblastine. To retain resistance adriamycin has to be added to the media. The cells grow as a monolayer and in suspension in spinner cultures and are tumorigenic in immune deficient mice. Together with the cisplatin-resistant variant A2780cis these lines only differ in their exposure to a single drug and should facilitate the search for molecular changes responsible for the expression of pleiotropic drug resistance in human ovarian cancer.
Nude mice were implanted with A2780 ADR cells to model ovarian carcinoma. Anti-B1 monoclonal antibodies are efficacious in A2780 ADR ovarian carcinoma model in nude mice.

Row | Molecule | tumor volume, single agent
1 | B1 | decreased tumor volume
2 | B2 | decreased tumor volume
3 | B3 | decreased tumor volume

Same assay, conditions: antibody plus paclitaxel

Row | Molecule | tumor volume, in combination with paclitaxel
4 | B1 | decreased tumor volume
5 | B2 | decreased tumor volume
6 | B3 | decreased tumor volume

Biological target: T1, human MDR1 extracellular loops 1 and 4 (ECD1, ECD4) (Homo sapiens, UniProt P08183)
T1 construct: FLAG (C); expressed in transfected cells; host or cells: 293T
Assay: Epitope mapping with mutant human MDR1 expressed on 293T cells (flow cytometry)
Type: binding
Conditions: extracellular loop 1 and extracellular loop 4
Description: To determine binding of anti-MDR1 mAbs listed in Table 2 to the two major extracellular loops 1 and 4 of MDR1, various mutations were constructed to alter or substitute these two loops. To examine binding to cynomolgus extracellular loops, the extracellular loop 1 and/or loop 4 of cynomolgus MDR1 were grafted (with a C-terminal FLAG tag) to substitute for the human loops in the human MDR1 using standard techniques. To examine binding dependence on the normal human loops, MDR1 variants with deletion 79-102 and deletion 82-99 in loop 1 were also generated. Loop 1 is also referred to as ECD1. Loop 4 is also referred to as ECD4. These mutant MDR1 efflux pump variants were expressed on 293T cells using standard methods to generate cells that could be used to distinguish binding of various anti-MDR1 mAbs. The different cells were incubated with different anti-MDR1 mAbs for about 1 hour at 4° C. The cells were washed twice with FACS buffer (PBS containing 0.5% BSA). Alexa647 labeled goat anti-human antibody was added as a secondary antibody, and the samples were incubated on ice for another 1 hour. Samples were washed again and analyzed by flow cytometry.
FIG. 9 summarizes the findings from preliminary epitope mapping using mutant human MDR1. […] For example, anti-MDR1 mAb B1.129 requires ECD1 and ECD4 for binding to human MDR1. All of the anti-MDR1 antibodies contact ECD4. […] ECD1 refers to the first extracellular domain of human ABCB1, ECD4 refers to the fourth extracellular domain of human ABCB1 and “others” refers to the remainder of the extracellular domains 2-3 and 5-6 of human ABCB1. Only binding to ECD1 and ECD4 was tested.

Row | Molecule | epitope on human MDR1
7 | B4 | bind to an epitope comprising extracellular loop 1 and extracellular loop 4
8 | B5 | bind to an epitope comprising extracellular loop 1 and extracellular loop 4
9 | B6 | bind to an epitope comprising extracellular loop 1 and extracellular loop 4
10 | B7 | bind to an epitope comprising extracellular loop 1 and extracellular loop 4
11 | B8 | bind to an epitope comprising extracellular loop 1 and extracellular loop 4
12 | B9 | bind to an epitope comprising extracellular loop 1 and extracellular loop 4
13 | B10 | bind to an epitope comprising extracellular loop 1 and extracellular loop 4
